The values that follow come from publication PMC6571972 (Pharmaceutics, 2019).

Usually share remaining stands for the share of the starting amount still present when the sample was taken. As usually defined, the IC50 is the concentration that inhibits the measured activity by half.

For data set [1], the system named is AtT20 tumors. Description: in vivo antitumor efficacy. The arrangement: species or system BALB/c nude mice. Conditions: 5 mg/kg i.v. once weekly for three weeks, AtT20 tumor-bearing mice. On the procedure:
Figure S1. Confocal microscopy images from conjugate 10 in SSTR2 positive cell line […]
Animal experiments were approved by the Committee for Animal Experiments of the […]
For in vivo tumor targeting and antitumor efficacy experiments, three million AtT20/D16v-F2 murine pituitary tumor cells in 100 µL PBS/Matrigel (v/v) were xenografted in the right flank of four-weeks-old female BALB/c nude mice (BALB/cAnNRj-Foxn1nu/nu, Janvier Labs). The experiments started around 15 days after implantation, when the animals started to show physical signs of the hormone releasing […]
In vivo antitumor efficacy
Animals bearing AtT20 tumors were randomized in three treatment groups (n=9) and injected intravenously with 5 mg/kg of conjugate 8 in 2% DMSO in water or a mix of […]
Treatment was given once a week for a total of three weeks. Vehicle treatment was used as control. Mice were weighed, and the tumor sizes were monitored with an electronic caliper. Tumor volume was calculated using the ellipsoid formula ν = π/6ꞏxꞏyꞏz.
Figure S2. In vivo antitumor efficacy of conjugate 8 compared to vehicle and unconjugated mix of cryptophycin and octreotide (left), and body weight quantification during treatment (right). […]

Data set [2] concerns the target T1, cathepsin B from bovine spleen (Bos taurus, UniProt P07688).
T1 construct: cathepsin B from bovine spleen (Sigma Aldrich, C6286); purchased Sigma Aldrich C6286; host or cells: bovine spleen (tissue-derived)
Description: cathepsin B degradation. The class given is in vitro ADME. Conditions: cathepsin B 1 U/mL. On the procedure:
(§1) Cathepsin B degradation: An aqueous solution of L-cysteine (0.28 M) was diluted 1:10 in acetate buffer/EDTA 1 mM pH 5.5, to achieve a working solution of 28 mM of L-cysteine. This solution was used to dilute cathepsin B from bovine spleen (Sigma Aldrich, C6286) to 1.11 U/mL. The cathepsin B solution was pre-incubated at 37 °C for 15 min and then split into 45 µL aliquots in Eppendorf tubes, with two replicates for each incubation time. 5 µL of substrate solution (50 µM in MeOH/H2O (1:1)) were added to each tube for a final concentration of 5 µM. Tubes corresponding to t0 contained 100 µL of 1% HCOOH in MeOH and they were put in an ice bath to inhibit the reaction. All of the other tubes were incubated at 37 °C in an oscillating thermostatic bath and the reaction was stopped at the following incubation times: 0.25, 0.5, 1, 2, 4, and 6 h, as described for the t0 samples. The samples were then centrifuged for 10 min at 14000 rpm at 4 °C and filtered through regenerated cellulose syringe filters prior to injection in the HPLC-ESI-MS system. Control solutions containing 5 µM substrate in acetate buffer pH 5.5/EDTA 1 mM/L-cysteine 28 mM were also prepared and then incubated up to 6 h at 37 °C in the absence of the enzyme to check the substrate stability under incubation conditions. Substrates and their possible cleavage products (Gly-Pro-Cry-55gly, Cry-55gly, and Cry-55) were quantified via calibration curves that were prepared in acetate buffer/EDTA/L-cysteine in the range 25–5000 nM.

Data set [3] is described as follows: cathepsin B degradation. It counts as in vitro ADME, bovine. Conditions: acetate buffer/EDTA/L-cysteine without enzyme; acetate buffer pH 5.5/EDTA/L-cysteine, 37 °C, after 6 h; read-out: compound remaining in buffer in the absence of enzyme. As for the experimental part:
as §1

Data set [4] is described as follows: in vivo. Conditions: mouse.
Description: Dose escalation experiments determined the maximum tolerated dose of the conjugate.
Data set [5] deals with T2, human SSTR2 (Homo sapiens, UniProt P30874).
T2 construct: membrane extract (recombinant CHO-K1-SST2 (NP_001041.1), 25 µL, 0.2 µg); expressed in transfected cells; host or cells: CHO-K1
T2 sequence (P30874 whole entry): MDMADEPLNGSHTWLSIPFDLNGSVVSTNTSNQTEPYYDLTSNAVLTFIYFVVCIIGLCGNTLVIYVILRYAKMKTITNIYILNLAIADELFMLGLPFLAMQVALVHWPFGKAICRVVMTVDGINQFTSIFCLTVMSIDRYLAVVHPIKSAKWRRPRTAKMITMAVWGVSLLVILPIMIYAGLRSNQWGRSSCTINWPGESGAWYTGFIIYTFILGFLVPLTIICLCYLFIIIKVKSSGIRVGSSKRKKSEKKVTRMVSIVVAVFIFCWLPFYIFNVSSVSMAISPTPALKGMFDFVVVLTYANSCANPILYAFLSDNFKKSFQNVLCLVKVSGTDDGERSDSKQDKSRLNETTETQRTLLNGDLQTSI
Description: radioligand binding competition assay with SSTR2 membrane extract. Conditions: competition with 3-[125I] iodotyrosyl11 Somatostatin 14, CHO-K1-SST2 membranes; read-out: Binding Affinity (IC50 in nM). As for the experimental part: The dilution of test compound (50 µL, maximum final DMSO concentration 3%), radioligand 3-[125I] iodotyrosyl11 Somatostatin 14 (Perkin Elmer, NEX389, 25 µL, 0.4 nM), and membrane extract (recombinant CHO-K1-SST2 (NP_001041.1), 25 µL, 0.2 µg) were successively added to a 96-well plate and then incubated at 25 °C for 60 min. It was filtered over GF/B Unifilter plate (Perkin Elmer, 6005177, pre-soaked in 0.5% PEI for 2 h at room temperature) with a Filtermate Harvester (Perkin Elmer). After rinsing the filters six times with 0.5 mL of ice-cold washing buffer (25 mM HEPES pH 7.4, 5 mM MgCl2, 1 mM CaCl2), 50 µL of Microscint 20 (Packard) was added to the filters and the samples were incubated 15 min on an orbital shaker and then counted with a TopCount™ for 1 min/well. The binding affinity was determined in duplicates by plotting the dose-response data to a nonlinear regression with variable slope.

Data set [6] is described as follows: plasma stability in murine plasma. The class given is in vitro ADME. The following applies: mouse, 37 °C, read-out: Plasma Stability (t1/2 in h) Murine (converted). As for the experimental part:
(§2) Plasma stability: The sample preparation and the metabolic analysis of the conjugates was carried out similarly to the previously described method. Shortly, in a 96-well plate each conjugate and the control compound, procaine (3 mM, stock solution in DMSO) in three replicates were diluted with 250 μL of plasma to give a 3 µM concentration and then incubated at 37 °C. At each sample collecting time point, an aliquot of 30 µL was transferred into a 96-deep well plate and the reaction was stopped with 120 µL of acetonitrile containing 0.1% formic acid and 0.4 µg/mL of warfarin as the internal standard (IS). This mixture was centrifuged at 1100 ×g for 30 min at 4 °C and 50 µL of supernatant was transferred into a clean 96 deep-well plate and diluted with 50 µL of 0.1% formic acid in water. The samples were stored at -80 °C until analyses. Stability was determined based on LC-HRMS analysis of the disappearance of the compound as a function of incubation time, while using area ratio (analyte peak area vs internal standard peak area). The elimination constant k is calculated by plotting mean disappearance values on a semi-logarithmic scale and fitting with a best fit linear regression. The half-life (t1/2) expressed in hours is derived using the equation: t1/2 = ln2/(−k).

A short description of data set [7]: plasma stability in human plasma. Conditions: 37 °C, read-out: Plasma Stability (t1/2 in h) Human (converted). It counts as in vitro ADME. As for the experimental part:
as §2

Molecules are shown by their SMILES.

On to `COc1ccc(C[C@H]2NC(=O)/C=C/C[C@@H]([C@H](C)[C@@H](OC(=O)CNC(=O)[C@@H]3CCCN3C(=O)CNC(=O)[C@H](CCCNC(N)=O)NC(=O)[C@@H](NC(=O)CCOCCOCCOCCOCCn3cc(CCC(=O)N[C@H](Cc4ccccc4)C(=O)N[C@H]4CSSC[C@@H](C(=O)N[C@H](CO)[C@@H](C)O)NC(=O)[C@H]([C@@H](C)O)NC(=O)[C@H](CCCCN)NC(=O)[C@@H](Cc5c[nH]c6ccccc56)NC(=O)[C@H](Cc5ccccc5)NC4=O)nn3)C(C)C)[C@@H](Cl)c3ccccc3)OC(=O)[C@H](CC(C)C)OC(=O)C(C)(C)CNC2=O)cc1Cl` [compound 8], for which the “antitumor efficacy (tumor volume)” value in data set [1] was “no therapeutic benefit”. In data set [2] (5 µM compound, 37 °C), the “cleavage by cathepsin B” value is listed as “readily cleaved”. Moreover, the “release of cryptophycin-55 glycinate by self-immolation after cleavage” value in data set [2] (up to 6 h) is given as “no cryptophycin-55 glycinate (3) was found”. Moreover, the fraction remaining at 6 h, 5 µM in data set [3] is 90%. In addition, the MTD in data set [4] was at least 10 mg/kg. The IC50 in data set [5] amounted to 1.3 nM. In addition, the half-life at 3 µM in data set [6] is above 24 h; in data set [7] it was 24 h.
